From article PMC8658920

Molecular target: heterochromatin protein HP1γ (UniProt Q13185)
Assay: proximity labelling; PUB (proximity utilizing biotinylation): BAP-HP1γ co-expressed with BirA-HP1γ or, in a separate dish, with BirA-Tap54α; 4 h biotinylation time; MRM LC-MS/MS on Agilent nanoHPLC-Chip ion trap, Skyline; ratio of biotinylation level, experiment versus control

heterochromatin protein HP1γ, Q13185 1-183 (natural protein; other documents disagree on this pair), sequence (Q13185 whole entry): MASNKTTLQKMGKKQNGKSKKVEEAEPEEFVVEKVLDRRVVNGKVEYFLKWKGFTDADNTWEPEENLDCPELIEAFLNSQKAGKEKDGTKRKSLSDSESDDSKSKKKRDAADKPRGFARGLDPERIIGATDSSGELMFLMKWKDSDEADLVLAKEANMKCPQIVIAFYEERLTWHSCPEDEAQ

ratio of biotinylation level, experiment versus control BAP-HP1γ + BirA-Tap54α (4 h biotinylation time): 32
Substance: heterochromatin protein HP1γ, Q13185 1-183 (natural protein; other documents disagree on this pair)
